# Experimental data as given in the RNAGym collection of RNA variant scans (doi:10.1073/pnas.2313332121).
# B1: TPR t1 (parent)
# chain: GACCAAUCUGCCCUCAGAGCUCGAGAACAUCUUCGGAUGCAGAGGAGGCAGGCUUCGGUGGCGCGAUAGCGCCAACGUCCUCAACCUCCAAUGCAUCCCACCACAUGAUGAUGCCUGAAGAGCCUUGGUUUUUUG
# Variants of: B1
# Assay: polymerase ribozyme fitness, log enrichment relative to wild type (log ratio); higher = more active; in vitro selection for triplet polymerase activity
# Procedure, shortened: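 Mutant libraries for each subunit of a heterodimeric triplet polymerase ribozyme were made by PCR and then transcribed. Each library underwent one round of in vitro selection in triplicate: annealing with a biotinylated primer, the partner subunit and triplets, frozen incubation at −7 °C, gel excision of extended constructs, streptavidin-bead capture and RT-PCR. Input and output libraries were Illumina-sequenced, and only genotypes with ≥10 input reads and ≥1 read per output were kept. Fitness is the logarithm, base 2, of genotype enrichment over wild-type enrichment, computed from inverse-variance-weighted replicate averages.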
row,Variant,polymerase ribozyme fitness (log ratio)
1,C53G A68G U87G,-4.16
2,C53G A74G C115U,-1.15
3,C53G A119U C123A,-1.16
4,C53G A119U G127C,-1.2
5,C53G C56A G117C,-4.49
6,C53G C62U C72A C124U,0.806
7,C53G C64U G120A,1.12
8,C53G C70A G117A,-3.42
9,C53G C70G,-2.85
10,C53G C70U U125C,-3.18
11,C53G C72G C88A,-0.997
12,C53G C72G G117C,-4.69
13,C53G C72U C104A,-1.89
14,C53G C73A A105C,-3.2
15,C53G C73U,-0.493
16,C53G C89U C115U,-2.67
17,C53G C94A C115G G128C,-4.56
18,C53G C97A G113A,-4.75
19,C53G C101A,-1.03
20,C53G C102A,-2.97
21,C53G C104U C114U G120U C123G C124A,-0.873
22,C53G C115U,-1.56
23,C53G G57A A66G C70A G113U,-7.08
24,C53G G57U,0.0545

row,Variant,polymerase ribozyme fitness (log ratio)
1,C53G G58A C115A,-0.718
2,C53G G60A C104A U125A U131A,-3.15
3,C53G G60U C104A C114U,-5.11
4,C53G G60U G65U C104U,-7.04
5,C53G G61A C88A A111U U112G C124A,-1
6,C53G G61C A66C,-2.24
7,C53G G61U G77U C101G G120C,-3.46
8,C53G G63A,-2.58
9,C53G G63A A95G G110A U125C,-4.78
10,C53G G63C A91C A118C,-4.54
11,C53G G69U,-0.127
12,C53G G71C C72U,-0.79
13,C53G G77A C102U G120C U125A,-2.26
14,C53G G110U,-1.58
15,C53G G120A,0.668
16,C53G G122A,-1.37
17,C53G G127U,-1.46
18,C53G G135U,-1.51
19,C53G U59G C94G,-0.648
20,C53G U81A U131G,-0.825
21,C53G U87G G127U U133G,-0.973
22,C53G U106A,-0.474
23,C53G U125A,-2.2
24,C53U A75G A84U,-0.747

row,Variant,polymerase ribozyme fitness (log ratio)
1,C53U A90U C101A,-2.09
2,C53U A91U,-2.05
3,C53U A103U U116C G117U A118C,-5.82
4,C53U A105C G120C G122A U129A,-5.42
5,C53U C56G C101A A121C G135C,0.621
6,C53U C62G,-1.49
7,C53U C62G C70U G110A,-6.1
8,C53U C62U A111U A118U,-3.63
9,C53U C64A C72U A95C A105C G122U C123G,-6.4
10,C53U C64G C73U A90C U112G,-7.28
11,C53U C70U,-0.962
12,C53U C72A A90U C101A,-2.92
13,C53U C72G C88U A105G,-2.32
14,C53U C72G G113C U129A,-4.76
15,C53U C73A,-0.168
16,C53U C73U,-0.178
17,C53U C79A C85U C88U,-2.08
18,C53U C79G U81C,-1.9
19,C53U C80A U131A,-5.6
20,C53U C82A A121C,1.33
21,C53U C85U,-1.78
22,C53U C86G C89G C97U C124U,-1.92
23,C53U C86G C115U,-1.83
24,C53U C89A C115U A119G,0.658

row,Variant,polymerase ribozyme fitness (log ratio)
1,C53U C89U,-0.632
2,C53U C101G,-1.42
3,C53U C102U C114A,-4.76
4,C53U C114A,-1.2
5,C53U C123U,1.1
6,C53U C124A G128C,-0.772
7,C53U C124G,1.61
8,C53U C124U,1.92
9,C53U G57C U78C C114A C123U,-3.58
10,C53U G57U A121C,1.4
11,C53U G57U C62G,-2.6
12,C53U G58U,-0.0375
13,C53U G60A C73A U106G C123G U126A,-2.6
14,C53U G60C G120A,0.0788
15,C53U G60U C80U G93C C97U C101U U133A,-3.62
16,C53U G61A C82A C86G U133A,-1.32
17,C53U G63A C80A A105C G113U,-6.53
18,C53U G69A,-2.64
19,C53U G69A A91U G110A G113U G128U,-5.88
20,C53U G71C,-0.133
21,C53U G71C C82G,-0.812
22,C53U G71U,-0.192
23,C53U G93A A105C G117U,-6.56
24,C53U G113C,-1.77

row,Variant,polymerase ribozyme fitness (log ratio)
1,C53U U54G G117A,-0.796
2,C53U U59A C89A U130G,-3.42
3,C53U U59C,-0.508
4,C53U U59C U96A,-1.65
5,C53U U78C,-0.767
6,C53U U78C G120C,-0.0303
7,C53U U78G,-0.118
8,C53U U78G C79A,-1.4
9,C53U U81A,-1.63
10,C53U U81C C88A,-1.58
11,C53U U92G,-2.82
12,C53U U109G,-4.32
13,C53U U112G,-0.00138
14,U54A A66G C70G C124U U129G,-6.53
15,U54A A95U,-0.632
16,U54A A119G G135U,0.414
17,U54A C56U,-0.589
18,U54A C64U,-0.112
19,U54A C64U A95C,-0.888
20,U54A C64U C72U C86A,-0.948
21,U54A C70G C86U,-3.2
22,U54A C70U G113U C114G A121C,-2.74
23,U54A C72U C97U,-1.24
24,U54A C79A G93U C114U G117A,-6.48

row,Variant,polymerase ribozyme fitness (log ratio)
1,U54A C88G,-1.9
2,U54A C89G,-1.31
3,U54A C101U G120A,0.15
4,U54A C115U,-1.11
5,U54A C124A G128U,-0.136
6,U54A G57U U78A A95U G120U,-0.728
7,U54A G60C,-0.566
8,U54A G60C G113C,-2.11
9,U54A G61A C124A G128U,-0.356
10,U54A G61U C62U U96G,-6.42
11,U54A G69C,-1.12
12,U54A G69U,-0.707
13,U54A G113A,-1.58
14,U54A G113A C123U,-2.23
15,U54A G127C,-0.488
16,U54A U55A G61A A74G,-1.53
17,U54A U81A,-0.628
18,U54A U92G,-2.06
19,U54A U96C,0.104
20,U54C A103G,-4.75
21,U54C C56A C85G G117A,-4.42
22,U54C C70U,-0.253
23,U54C C72U,-0.0207
24,U54C C73G A121U,1.17

row,Variant,polymerase ribozyme fitness (log ratio)
1,U54C C79A C98U C101A,-5.66
2,U54C C79G U125C,-4.66
3,U54C C82U U106A U109A G135U,-4.59
4,U54C C94A G113U,-3.83
5,U54C C94G C99U,-4.42
6,U54C C98U A121U,1.37
7,U54C G57C U112C,1.77
8,U54C G60U U133G,-0.398
9,U54C G61U G71U C82U A83U C114U,-5.85
10,U54C G69U G127C,-0.892
11,U54C G71C A91U U116C,-5.63
12,U54C G77U C79A C88U,-1.68
13,U54C G122A G128U,-3.12
14,U54G A75U C89U,-0.98
15,U54G A95U,-0.988
16,U54G C56U,-4.05
17,U54G C56U A121G C124A,-4.56
18,U54G C62A U78C C123U U126A,-6.39
19,U54G C62G U81A C98U,-4.8
20,U54G C62U U81A,-1.77
21,U54G C79A,-2.11
22,U54G C80G C123U,-4.41
23,U54G C80U U133A,-0.863
